Patent US20240317834A1, “COMPOSITIONS AND METHODS FOR NEUROLOGICAL DISEASES” (CODA BIOTHERAPEUTICS, INC., priority 2020, published 2024)
“Also recorded” adds a separate entry of the source.

What was measured:
Assay type in all cases: cell-based
rat DRG neurons = test: Whole cell manual patch clamp electrophysiology, ligand-induced currents and EC50 in rat DRG neurons
Description: (§1) Using whole cell manual patch clamp electrophysiology in HEK293 cells, rat DRG neurons and rat hippocampal neurons, the EC50 of the various engineered receptors disclosed herein to Ach and non-native ligands was measured using the Hill equation with peak current measurements from escalating doses of ligand. The rheobase shift was also measured in rat DRG neurons, which reflects the efficacy of the receptors. To calculate the rheobase, first, the amount of current that can produce an action potential was determined. Then the ligand was added, followed by a step wise increase in the current injected up to 700 pA.
(§2) For manual patch clamp experiments, Cells plated on coverslips were visualized at 10× and 40× on an inverted fluorescence microscope (Olympus). Recordings were made with an Axopatch 200B amplifier and Digidata 1550B (Molecular Devices) at RT using 3-6 MOhm glass patch electrodes (Sutter, BF150-86-10). Unless otherwise stated, recordings were made in extracellular solution (ECS) containing: 140 mM sodium chloride, 4 mM potassium chloride, 1 mM magnesium chloride, 2 mM calcium chloride, 10 mM HEPES, and 10 mM D-(+)-glucose (pH=7.3 with sodium hydroxide, osmolarity=305−315 mOsm). An 8-line reservoir (AutoMate Scientific) in combination with an 8-channel zero-dead-volume perfusion pencil (AutoMate Scientific) was used for perfusion. Data was acquired using pClamp software (Molecular Devices). Traces were either analyzed in Clampfit (Molecular Devices) or using custom Python code. Plotting and statistics were performed in GraphPad Prism.
For dose-response, ligand-induced currents were recorded in voltage clamp mode. For HEK cell experiments, recordings took place in the normal ECS with a cesium-based internal solution containing: 140 mM cesium chloride, 5 mM potassium fluoride, 2 mM Calcium chloride, 2 mM magnesium chloride, 10 mM HEPES, and 10 mM EGTA (pH=7.2 with cesium hydroxide, osmolarity=290-295 mOsm). […]

HEK293 cells = test: Whole cell manual patch clamp electrophysiology, ligand-induced currents and EC50 in HEK293 cells
Description: as §1
as §2, with “An 8-line reservoir (AutoMate Scientific) in combination with an 8-channel zero-dead-volume perfusion pencil (AutoMate Scientific) was used for perfusion. Data was acquired using pClamp software (Molecular Devices).” left out, “Plotting and statistics were performed in GraphPad Prism.” left out
For dose-response, ligand-induced currents were recorded in voltage clamp mode. […]

HEK293T cells = test: High throughput electrophysiology (IonFlux automated patch clamp), EC50 of engineered receptors to ligands
Description: To confirm the EC50s determined by plate reader as well as develop a better understanding of maximum current flow, the engineered receptors were subjected to high throughput electrophysiology system, as described below. For HEK293T studies, cDNAs encoding ion channels were cloned into pcDNA3.1 using standard recombination techniques. HEK293T cells from Clontech (Lenti-X™ 293T Cell Line) were cultured in DMEM supplemented with 10% FBS and 1% Pen/Strep to 40-50% confluence using standard cell culture protocols, transfected with ion channel plasmids at a concentration of 18 μg per 15 cm dish using Fugene 6, and grown for an additional 24 hours. Cells were then assayed on an electrophysiological system (IonFluxHT and/or Mercury, Fluxion Biosciences) in which dose-response relationships may be assessed through a microfluidics-based platform for establishing whole cell configurations. Ensemble plates were primed with extracellular buffer (140 mM NaCl, 5 mM KCl, 2 mM CaCl2), 1 mM MgCl2, 10 mM HEPES, and 10 mM glucose, pH 7.2 with NaOH, mOsm 310), intracellular buffer (145 mM CsCl, 2 mM CaCl2), 2 mM MgCl2, 10 mM HEPES, and 10 mM EGTA, pH 7.2 with CsOH, mOsm 305), as adapted from Lynagh and Lynch, and test compounds (stocks prepared fresh) diluted in extracellular buffer. Cells were then released from the plate with Accutase, centrifuged, resuspended in extracellular buffer, and loaded into Ensemble plates. Cells were then subjected to a standard protocol for priming, trapping, breaking, and establishing whole cell configuration, with cells held at −60 mV throughout the recording. After recording baseline, progressive doses of test compounds were applied using the IonFlux software to assess dose response relationships. Data were then analyzed off-line using custom Python scripts to convert data to .csv format, re-plot traces, and apply QC measurements to reject unstable recordings (i.e. thresholding based on access resistance and/or standard deviation in baseline, as well as artifact rejection). Peak currents were then calculated, and population data were fit using a 4-parameter logistic equation as described by the Hill Equation. Currents were measured on an automated patch clamp system (Fluxion Biosciences) following 1 second addition of drug and the EC50 values calculated are tabulated below in Table 22 below and Table 21 above (in Example 2).

B1: CODA806: engineered chimeric LGIC receptor, Y115D, L131Q in SEQ ID NO: 33 (protein)
chain: MRCSPGGVWLALAASLLHVSLQGEFQRKLYKELVKNYNPLERPVANDSQPLTVYFSLSLLQIMDVDEKNQVLTTNIWLQMSWTDHYLQWNVSEYPGVKTVRFPDGQIWKPDILLDNSADERFDATFHTNVQVNSSGHCQYLPPGIFKSSCPMDLKNFPMDVQTCKLKFGSWSYGGWSLDLQMQEADISGYIPNGEWDLVGIPGKRSERFYECCKEPYPDVTFTVTMRRRMGYYLIQMYIPSLLIVILSWISFWINMDAAPARVGLGITTVLTMTTQSSGSRASLPKVSYVKAIDIWMAVCLLFVFSALLEYAAVNFVSRQHKELLRFRRKRRHHKSPMLNLFQEDEAGEGRFNFSAYGMGPACLQAKDGISVKGANNSNTTNPPPAPSKSPEEMRKLFIQRAKKIDKISRIGFPMAFLIFNMFYWIIYKIVRREDVHNQ
modifications: synthetic sequence of chimeric LGIC
chloride current on application of RG-3487 (SA-2) (rat DRG neurons; cultured adult rat DRG neurons expressing the receptor, not observed in non-transduced cells): generated chloride current in a dose dependent manner | sensitivity to RG-3487 compared with wildtype nAchRa7 receptor (rat DRG neurons; cultured rat DRG sensory neurons): way more sensitive | sensitivity to acetylcholine (rat DRG neurons; cultured rat DRG sensory neurons, compared with wildtype nAchRa7 receptor): essentially insensitive | sensitivity to RG-3487 compared with wildtype nAchRa7 receptor (HEK293 cells): way more sensitive | sensitivity to acetylcholine, current generated (HEK293 cells; Ach up to 100 mM, compared with wildtype nAchRa7 receptor, listed as Y115D and L131Q in SEQ ID NO: 33): essentially insensitive; also recorded: almost no current could be generated | fold increased potency towards RG-3487 compared with wild type receptor (HEK293T cells; ligand RG-3487): over 10 fold | fold reduced potency to acetylcholine compared with wild type receptor (HEK293T cells; ligand acetylcholine): over 500 fold
